Data as given in PMC6876245.
Where two headings read alike, the source gives them in different places.

Tests used:
POT1-N [1] = target: T1, POT1-N (human, UniProt Q9NUX5 1-340); assay: hydroxyl radical footprinting MS
T1 sequence: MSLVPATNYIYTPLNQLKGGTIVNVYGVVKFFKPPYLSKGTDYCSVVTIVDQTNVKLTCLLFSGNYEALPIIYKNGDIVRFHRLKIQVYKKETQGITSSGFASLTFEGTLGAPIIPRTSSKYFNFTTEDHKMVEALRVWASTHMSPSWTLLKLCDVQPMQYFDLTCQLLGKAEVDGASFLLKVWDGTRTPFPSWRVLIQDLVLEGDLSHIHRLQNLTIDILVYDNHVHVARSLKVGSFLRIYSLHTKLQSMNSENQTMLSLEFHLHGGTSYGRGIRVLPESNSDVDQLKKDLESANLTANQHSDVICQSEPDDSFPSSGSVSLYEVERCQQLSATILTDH

POT1;TPP1 [2] = target: T2, POT1;TPP1 (human;human, UniProt Q9NUX5;Q96AP0 1-634;3-248, |); assay: EMSA
POT1 H266L;TPP1 [3] = target: T3, POT1 H266L;TPP1 (human;human, UniProt Q9NUX5;Q96AP0 1-634;3-248, H266L|); assay: stopped-flow CD
Target sequence in this assay (Q96AP0 3-248, stated change not applied, one chain of several): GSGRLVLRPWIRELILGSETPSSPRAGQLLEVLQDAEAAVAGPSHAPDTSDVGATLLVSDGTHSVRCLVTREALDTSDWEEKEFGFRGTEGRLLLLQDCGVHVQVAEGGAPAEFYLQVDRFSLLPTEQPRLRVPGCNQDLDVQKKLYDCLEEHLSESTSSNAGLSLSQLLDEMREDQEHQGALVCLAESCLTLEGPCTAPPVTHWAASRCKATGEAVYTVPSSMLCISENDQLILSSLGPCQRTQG

POT1 Y36N;TPP1 [4] = target: T4, POT1 Y36N;TPP1 (human;human, UniProt Q9NUX5;Q96AP0 1-634;3-248, Y36N|); assay: EMSA
Target sequence in this assay (Q96AP0 3-248, stated change not applied, one chain of several): as above

POT1 H266L;TPP1 [5] = target: T3, POT1 H266L;TPP1; assay: EMSA
Target sequence in this assay (Q9NUX5 whole entry H266L, chain 1 of 2): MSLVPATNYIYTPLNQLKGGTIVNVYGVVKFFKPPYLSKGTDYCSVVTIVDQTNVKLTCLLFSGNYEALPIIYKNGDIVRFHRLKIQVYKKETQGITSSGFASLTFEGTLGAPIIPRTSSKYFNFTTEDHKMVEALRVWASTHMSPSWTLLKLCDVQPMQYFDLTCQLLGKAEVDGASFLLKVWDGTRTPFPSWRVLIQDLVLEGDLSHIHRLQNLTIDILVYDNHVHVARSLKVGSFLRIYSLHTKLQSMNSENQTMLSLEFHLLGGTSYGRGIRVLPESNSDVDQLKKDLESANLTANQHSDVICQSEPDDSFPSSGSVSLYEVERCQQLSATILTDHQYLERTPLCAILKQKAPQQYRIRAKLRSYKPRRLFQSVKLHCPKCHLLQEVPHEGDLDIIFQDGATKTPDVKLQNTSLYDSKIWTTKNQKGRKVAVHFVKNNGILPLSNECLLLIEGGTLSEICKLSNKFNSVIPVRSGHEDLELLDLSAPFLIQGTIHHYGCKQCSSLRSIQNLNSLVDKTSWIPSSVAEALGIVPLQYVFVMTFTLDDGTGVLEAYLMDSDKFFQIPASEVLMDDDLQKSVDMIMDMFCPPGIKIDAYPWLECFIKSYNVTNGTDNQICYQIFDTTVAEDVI
Target sequence in this assay (Q96AP0 3-248, chain 2 of 2): as the sequence (Q96AP0 3-248, stated change not applied, one chain of several) above

POT1;TPP1 [6] = target: T2, POT1;TPP1; assay: EMSA; remark: listed apart in the source
POT1 Y36N;TPP1 [7] = target: T4, POT1 Y36N;TPP1; assay: EMSA; remark: listed apart in the source
Target sequence in this assay (Q9NUX5 whole entry Y36N, chain 1 of 2): as the sequence (Q9NUX5 whole entry H266L, chain 1 of 2) above, with Y36N, L266H counted along it
Target sequence in this assay (Q96AP0 3-248, chain 2 of 2): as the sequence (Q96AP0 3-248, stated change not applied, one chain of several) above

POT1-N [8] = target: T1, POT1-N; assay: hydroxyl radical footprinting MS; remark: listed apart in the source

T2 sequence (Q96AP0 3-248, one chain of several): as the sequence (Q96AP0 3-248, stated change not applied, one chain of several) above

B1: hT72 (ssDNA)
DNA: GGTTAGGGTTAGGGTTAGGGTTAGGGTTAGGGTTAGGGTTAGGGTTAGGGTTAGGGTTAGGGTTAGGGTTAG
- binding result (POT1-N [1]): binds
- apparent K (half saturation) (POT1;TPP1 [2]): 6.9 ± 0.6 nM
- binding result (POT1 H266L;TPP1 [3]): binds
- apparent K (half saturation) (POT1 Y36N;TPP1 [4]): 4.5 ± 0.4 nM

B2: hT12 (ssDNA)
DNA: GGTTAGGGTTAG
- Kd (POT1 H266L;TPP1 [5]): 29.1 ± 9.3 nM
- Kd (POT1;TPP1 [6]): 1 ± 0.5 nM
- Kd (POT1 Y36N;TPP1 [7]): 2.2 ± 1.1 nM
- binding result (POT1-N [8]): binds
